Data: PMC3019181 (BMC Microbiology, 2010)

Molecular target: the molecule itself
Test: two-hybrid; yeast; pJZ4-G clones in strain RFY231 mated with pHZ5-NRT clones in strain Y309; beta-galactosidase activity in Miller units (Yeast beta-Galactosidase Assay Kit, Pierce)

B1: Wag31T73EMtb (phosphomimetic Wag31 of Mycobacterium tuberculosis) (natural protein)
chain: MPLTPADVHNVAFSKPPIGKRGYNEDEVDAFLDLVENELTRLIEENSDLRQRINELDQELAAGGGAGVTPQAEQAIPAYEPEPGKPAPAAVSAGMNEEQALKAARVLSLAQDTADRLTNTAKAESDKMLADARANAEQILGEARHTADATVAEARQRADAMLADAQSRSEAQLRQAQEKADALQADAERKHSEIMGTINQQRAVLEGRLEQLRTFEREYRTRLKTYLESQLEELGQRGSAAPVDSNADAGGFDQFNRGKN
notes: also called phosphomimetic Wag31T73EMtb; source: yeast two-hybrid fusion
B1 was tested, and the “fold interaction (beta-galactosidase activity) against wild-type Wag31Mtb with itself” value was ~2 fold.
